Starred links: 1 amine or outer side, 2 acyl side, 3 side chain; linkers in the order of their positions; H or OH if unused. Positions of bridges follow the written chain, without caps; N, C: chain ends. Non-standard residues stand in square brackets, D forms with d. Primed or numbered codes have the meaning given here. PyrS2″ = (S)-3-amino-1-((pent-4-en-1-yloxy)carbonyl)pyrrolidine-3-carboxylic acid (stapling residue), C=CCCCOC(=O)N1CC[C@@](N[*:1])(C(=O)[*:2])C1; B5(4) = 2,2-bis(4-pentenyl)glycine = 2-amino-2-(pent-4-en-1-yl)hept-6-enoic acid (stitching residue), C=CCCCC(CCCC=C)(N[*:1])C(=O)[*:2]; TfeGA = (S)-2-amino-3-((carboxymethyl)(2,2,2-trifluoroethyl)amino)propanoic acid, O=C([C@H](CN(CC(=O)[*:3])CC(F)(F)F)N[*:1])[*:2]; PyrS2 = (S)-3-amino-1-((pent-4-en-1-yloxy)carbonyl)pyrrolidine-3-carboxylic acid, C=CCCCOC(=O)N1CC[C@@](N[*:1])(C(=O)[*:2])C1; MePpzAsn = (S)-2-amino-4-(4-methylpiperazin-1-yl)-4-oxobutanoic acid, CN1CCN(C(=O)C[C@H](N[*:1])C(=O)[*:2])CC1; F2PipNva = (S)-2-amino-5-(4,4-difluoropiperidin-1-yl)pentanoic acid, O=C([C@H](CCCN1CCC(F)(F)CC1)N[*:1])[*:2]; B5(25) = 2-amino-2-(pent-4-en-1-yl)hept-6-enoic acid (stitching residue), C=CCCCC(CCCC=C)(N[*:1])C(=O)[*:2]; MorphAsn = (S)-2-amino-4-morpholino-4-oxobutanoic acid, O=C(C[C@H](N[*:1])C(=O)[*:2])N1CCOCC1; B5(3) = 2,2-bis(4-pentenyl)glycine (stitching residue), C=CCCCC(CCCC=C)(N[*:1])C(=O)[*:2]; B5 = 2-amino-2-(pent-4-en-1-yl)hept-6-enoic acid, C=CCCCC(CCCC=C)(N[*:1])C(=O)[*:2]; Nva(5-morpholino) = N[C@@H](CCCN1CCOCC1)C(=O)O; Phe(3-COOH) = N[C@@H](Cc1cccc(C(=O)O)c1)C(=O)O; 2F3MeF = Cc1cccc(C[C@H](N[*:1])C(=O)[*:2])c1F; Phe(2-Cl) = N[C@@H](Cc1ccccc1Cl)C(=O)O; Bta = N[C@@H](Cc1csc2ccccc12)C(=O)O; Lys(iPr) = CC(C)NCCCC[C@H](N)C(=O)O; αAllylPro = C=CC[C@@]1(C(=O)O)CCCN1; tBuAla = CC(C)(C)C[C@H](N)C(=O)O; 3Thi = N[C@@H](Cc1ccsc1)C(=O)O; hSer = N[C@@H](CCO)C(=O)O; Nle = CCCC[C@H](N)C(=O)O
Biological target: full-length beta-Catenin (Uniprot ID P35222) (Homo sapiens (Human)) (UniProt P35222)
Experiment: fluorescence polarization competition vs 5FAM-TCF4(10-53) on full-length beta-catenin
Target sequence in this assay (P35222 2-781 limits assumed): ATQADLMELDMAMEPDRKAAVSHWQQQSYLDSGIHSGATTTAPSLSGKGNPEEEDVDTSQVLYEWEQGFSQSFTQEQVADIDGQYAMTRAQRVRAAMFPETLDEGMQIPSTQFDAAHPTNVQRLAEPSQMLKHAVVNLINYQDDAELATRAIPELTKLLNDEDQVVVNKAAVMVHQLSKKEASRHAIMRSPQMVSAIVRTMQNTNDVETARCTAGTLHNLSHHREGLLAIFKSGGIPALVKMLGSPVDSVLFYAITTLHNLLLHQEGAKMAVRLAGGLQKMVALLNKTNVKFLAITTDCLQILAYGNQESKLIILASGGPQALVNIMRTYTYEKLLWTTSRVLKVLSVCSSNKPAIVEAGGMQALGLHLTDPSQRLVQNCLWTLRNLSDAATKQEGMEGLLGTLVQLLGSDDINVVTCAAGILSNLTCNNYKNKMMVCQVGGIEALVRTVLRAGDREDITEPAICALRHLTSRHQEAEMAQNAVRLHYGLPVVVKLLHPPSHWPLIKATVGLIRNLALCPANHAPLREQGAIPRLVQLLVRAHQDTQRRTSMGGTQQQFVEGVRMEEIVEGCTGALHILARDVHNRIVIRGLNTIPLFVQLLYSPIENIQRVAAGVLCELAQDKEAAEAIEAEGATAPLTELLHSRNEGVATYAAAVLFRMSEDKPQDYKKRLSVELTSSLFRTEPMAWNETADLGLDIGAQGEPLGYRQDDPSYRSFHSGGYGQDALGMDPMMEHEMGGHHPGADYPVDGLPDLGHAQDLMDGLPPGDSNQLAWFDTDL

Binder | IC50 [nM]
Ac-[αAllylPro]D[tBuAla][B5]D[TfeGA]AAFS[PyrS2][3Thi][Bta]S-NH2 (staple 1-4, 4-11; also: earlier-eluting staple isomer composition) [I-954] | 900
Ac-[αAllylPro]D[tBuAla][B5]D[TfeGA]AAF[hSer][PyrS2][3Thi][Bta]S-NH2 (staple 1-4, 4-11; also: later-eluting staple isomer composition) [I-959] | 881
Ac-[αAllylPro]D[tBuAla][B5(25)]D[TfeGA]AAFF[PyrS2″][3Thi][Bta]S-NH2 (staple 1-4, 4-11; not fully specified) [I-963] | 402
Ac-[αAllylPro]D[tBuAla][B5]D[TfeGA]AAF[hSer][PyrS2][3Thi][Bta]S-NH2 (staple 1-4, 4-11; also: earlier-eluting staple isomer composition) [I-958] | 606
Ac-[αAllylPro]D[tBuAla][B5]D[TfeGA]AAFN[PyrS2][3Thi][Bta]Y-NH2 (staple 1-4, 4-11; also: later-eluting staple isomer composition) [I-953] | 1460
Ac-[αAllylPro]D[tBuAla][B5]D[TfeGA]AAFS[PyrS2][3Thi][Bta]S-NH2 (staple 1-4, 4-11; also: later-eluting staple isomer composition) [I-955] | 1200
Ac-[αAllylPro]D[tBuAla][B5]D[TfeGA]AAFN[PyrS2][3Thi][Bta]Y-NH2 (staple 1-4, 4-11; also: earlier-eluting staple isomer composition) [I-952] | 1210
Ac-[αAllylPro]D[tBuAla][B5(25)]D[TfeGA]AAFF[PyrS2″][3Thi][Bta]S-NH2 (staple 1-4, 4-11; also: earlier-eluting HPLC staple isomer) [I-962] | 407
Ac-[αAllylPro]D[tBuAla][B5]D[TfeGA]AAFT[PyrS2][3Thi][Bta]S-NH2 (staple 1-4, 4-11; also: earlier-eluting staple isomer composition) [I-956] | 1090
Ac-[αAllylPro]D[tBuAla][B5]D[TfeGA]AAFT[PyrS2][3Thi][Bta]S-NH2 (staple 1-4, 4-11; also: later-eluting staple isomer composition) [I-957] | 1430

Biological target: full-length beta-Catenin (Uniprot ID P35222) (Homo sapiens (Human)) (UniProt P35222)
Experiment: fluorescence polarization competition against 5FAM-TCF4 10-53 on full-length beta-catenin

Binder | IC50 [nM]
Ac-[αAllylPro]D[tBuAla][B5(4)]D[Phe(3-COOH)]AAFL[PyrS2][2F3MeF][Bta][F2PipNva]-NH2 (staple 1-4, 4-11) [I-1608] | 76
Ac-[αAllylPro]D[tBuAla][B5(4)]D[TfeGA]AAFT[PyrS2][Phe(2-Cl)][Bta][F2PipNva]-NH2 (staple 1-4, 4-11) [I-1607] | 49
Ac-[αAllylPro]D[tBuAla][B5(3)]D[Phe(3-COOH)]AAFL[PyrS2″][2F3MeF][Bta][MePpzAsn]-NH2 (staple 1-4, 4-11) [I-1612] | 10
Ac-[αAllylPro]D[tBuAla][B5(3)]D[Phe(3-COOH)]AAFL[PyrS2″][2F3MeF][Bta][MorphAsn]-NH2 (staple 1-4, 4-11) [I-1614] | 15
Ac-[αAllylPro]D[tBuAla][B5(3)]D[Phe(3-COOH)]AAFL[PyrS2][2F3MeF][Bta][Nva(5-morpholino)]-NH2 (staple 1-4, 4-11) [I-1610] | 19
Ac-[αAllylPro]D[tBuAla][B5(3)]D[TfeGA]AAFT[PyrS2″][Phe(2-Cl)][Bta][Lys(iPr)]-NH2 (staple 1-4, 4-11) [I-1615] | 9
Ac-[αAllylPro]D[tBuAla][B5(3)]D[TfeGA]AAFT[PyrS2][Phe(2-Cl)][Bta][Nva(5-morpholino)]-NH2 (staple 1-4, 4-11) [I-1609] | 15
Ac-[αAllylPro]N[tBuAla][B5(4)]DT[Lys(iPr)]AFF[PyrS2]F[Bta]Q-NH2 (staple 1-4, 4-11) [I-1599] | 1080
Ac-[αAllylPro]D[tBuAla][B5(4)]NTAAF[Nle][PyrS2″][3Thi][Bta]Q-NH2 (staple 1-4, 4-11) [I-1619] | 1290
Ac-[αAllylPro]D[tBuAla][B5(3)]D[TfeGA]AAFT[PyrS2″][Phe(2-Cl)][Bta][MorphAsn]-NH2 (staple 1-4, 4-11) [I-1613] | 9
Ac-[αAllylPro]N[tBuAla][B5(4)]DT[Lys(iPr)]ASL[PyrS2]F[Bta]Q-NH2 (staple 1-4, 4-11) [I-1597] | 6990
Ac-[αAllylPro]N[tBuAla][B5(4)]DT[Lys(iPr)]AFW[PyrS2]F[Bta]Q-NH2 (staple 1-4, 4-11) [I-1600] | 4290
Ac-[αAllylPro]N[tBuAla][B5(4)]DT[Lys(iPr)]AFS[PyrS2]F[Bta]Q-NH2 (staple 1-4, 4-11) [I-1601] | 2020
Ac-[αAllylPro]N[tBuAla][B5(4)]DT[Lys(iPr)]AFN[PyrS2]F[Bta]Q-NH2 (staple 1-4, 4-11) [I-1602] | 362
Ac-[αAllylPro]D[tBuAla][B5(4)]NTAAFL[PyrS2″][3Thi][Bta]Q-NH2 (staple 1-4, 4-11) [I-1618] | 10000
Ac-[αAllylPro]D[tBuAla][B5(3)]D[TfeGA]AAFT[PyrS2″][Phe(2-Cl)][Bta][MePpzAsn]-NH2 (staple 1-4, 4-11) [I-1611] | 10

Biological target: full-length beta-Catenin (Uniprot ID P35222) (Homo sapiens (Human)) (UniProt P35222)
Experiment: fluorescence polarization competition; 10 nM full-length beta-catenin + 10 nM 5FAM-TCF4(10-53) probe
Target sequence in this assay (P35222 whole entry): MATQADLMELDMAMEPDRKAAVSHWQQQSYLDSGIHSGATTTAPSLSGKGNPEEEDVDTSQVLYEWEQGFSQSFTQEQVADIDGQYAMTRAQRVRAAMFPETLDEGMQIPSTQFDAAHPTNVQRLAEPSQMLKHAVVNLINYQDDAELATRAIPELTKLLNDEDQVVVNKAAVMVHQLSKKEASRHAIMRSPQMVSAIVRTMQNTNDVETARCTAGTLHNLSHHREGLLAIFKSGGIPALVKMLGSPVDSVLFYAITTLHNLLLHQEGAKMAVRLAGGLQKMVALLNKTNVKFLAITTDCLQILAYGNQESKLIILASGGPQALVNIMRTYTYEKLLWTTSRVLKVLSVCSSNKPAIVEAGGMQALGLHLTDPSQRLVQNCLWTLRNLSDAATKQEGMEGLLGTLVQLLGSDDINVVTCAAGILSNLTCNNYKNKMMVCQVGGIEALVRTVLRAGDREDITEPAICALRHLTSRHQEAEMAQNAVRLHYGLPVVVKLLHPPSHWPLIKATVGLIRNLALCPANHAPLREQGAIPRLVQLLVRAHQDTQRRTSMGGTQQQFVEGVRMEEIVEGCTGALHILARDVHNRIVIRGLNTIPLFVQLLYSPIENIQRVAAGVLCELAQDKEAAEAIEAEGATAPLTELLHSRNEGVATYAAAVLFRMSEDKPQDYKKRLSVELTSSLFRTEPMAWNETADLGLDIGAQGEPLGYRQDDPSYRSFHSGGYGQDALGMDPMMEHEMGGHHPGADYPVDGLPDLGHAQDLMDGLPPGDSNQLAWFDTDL

Binder | EC50 [nM]
Ac-[αAllylPro]D[tBuAla][B5]D[TfeGA]AAFS[PyrS2][3Thi][Bta]S-NH2 (staple 1-4, 4-11; also: earlier-eluting staple isomer composition) [I-954] | 900
Ac-[αAllylPro]D[tBuAla][B5]D[TfeGA]AAF[hSer][PyrS2][3Thi][Bta]S-NH2 (staple 1-4, 4-11; also: later-eluting staple isomer composition) [I-959] | 881
Ac-[αAllylPro]D[tBuAla][B5(25)]D[TfeGA]AAFF[PyrS2″][3Thi][Bta]S-NH2 (staple 1-4, 4-11; not fully specified) [I-963] | 402
Ac-[αAllylPro]D[tBuAla][B5]D[TfeGA]AAF[hSer][PyrS2][3Thi][Bta]S-NH2 (staple 1-4, 4-11; also: earlier-eluting staple isomer composition) [I-958] | 606
Ac-[αAllylPro]D[tBuAla][B5]D[TfeGA]AAFN[PyrS2][3Thi][Bta]Y-NH2 (staple 1-4, 4-11; also: later-eluting staple isomer composition) [I-953] | 1460
Ac-[αAllylPro]D[tBuAla][B5]D[TfeGA]AAFS[PyrS2][3Thi][Bta]S-NH2 (staple 1-4, 4-11; also: later-eluting staple isomer composition) [I-955] | 1200
Ac-[αAllylPro]D[tBuAla][B5]D[TfeGA]AAFN[PyrS2][3Thi][Bta]Y-NH2 (staple 1-4, 4-11; also: earlier-eluting staple isomer composition) [I-952] | 1210
Ac-[αAllylPro]D[tBuAla][B5(25)]D[TfeGA]AAFF[PyrS2″][3Thi][Bta]S-NH2 (staple 1-4, 4-11; also: earlier-eluting HPLC staple isomer) [I-962] | 407
Ac-[αAllylPro]D[tBuAla][B5]D[TfeGA]AAFT[PyrS2][3Thi][Bta]S-NH2 (staple 1-4, 4-11; also: earlier-eluting staple isomer composition) [I-956] | 1090
Ac-[αAllylPro]D[tBuAla][B5]D[TfeGA]AAFT[PyrS2][3Thi][Bta]S-NH2 (staple 1-4, 4-11; also: later-eluting staple isomer composition) [I-957] | 1430

From patent US20240116985A1, “STAPLED PEPTIDES AND METHODS THEREOF” (priority 2020, published 2024)
